Our source for the long-duration monocyte-platelet interactions (video analysis, flow) values is patent US20170128490A1.

The test has as its target RGD-recognizing receptors (on monocytes). The test can be described thus: cell-based or functional assay.

B1: small RGD peptides, containing the amino-acid sequence Arg-Gly-Asp-Ser (peptide)
peptide: RGDS
For the molecule B1, the long-duration monocyte-platelet interactions (video analysis, flow) is 44 % decrease.
